Results: US20110311517A1 (SHENOGEN PHARMA GROUP, published 2011)

T1: biotinylated ERα36 (chemically synthesised target peptide, SEQ ID NO:2) (human, labeled with biotin (site not stated))
T1 construct: also called biotinylated ER36; biotinylated ERα36 peptides
T1 peptide: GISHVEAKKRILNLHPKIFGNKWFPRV

T2: recombinant human ERα36 (hER-α36, SEQ ID NO:1) expressed in HEK293 cells (human, UniProt P03372 174-457)
T2 construct: Present in lysates of ERα36-expressing HEK293 cells, separated by SDS-PAGE and blotted on PVDF (Western blot); also called recombinant ERα36
T2 sequence: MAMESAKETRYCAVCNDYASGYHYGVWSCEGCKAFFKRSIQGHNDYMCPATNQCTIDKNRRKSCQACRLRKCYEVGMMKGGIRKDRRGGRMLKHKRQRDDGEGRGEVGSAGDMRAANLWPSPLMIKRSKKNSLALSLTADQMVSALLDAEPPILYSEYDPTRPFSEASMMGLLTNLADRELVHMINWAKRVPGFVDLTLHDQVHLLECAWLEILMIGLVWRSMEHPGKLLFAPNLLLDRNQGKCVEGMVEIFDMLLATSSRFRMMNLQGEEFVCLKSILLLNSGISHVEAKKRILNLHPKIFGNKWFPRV


Tests used:
[1] = target: T1, biotinylated ERα36 (chemically …); experiment: ELISA on biotinylated ERα36 (streptavidin plate), ScFv 0.28 µg/ml, well 2
Protocol: (§1) Streptavidin-coated 96-well plates were washed twice with PBS. Biotinylated ERα36 (final concentration of 20 μg/ml) was added into each testing well. The plates were incubated for 2 h at room temperature and washed three times with PBST. Re-natured ScFv samples (100 μl, S14A1r1, S24A2r2, S33A2r1, S41A3r3, S53A1r1, S66A1r1 and S72A2r1) were added into the testing wells respectively. Each ScFv was diluted five times in five gradients, and two parallel wells were loaded with each ScFv at each gradient. The plates were incubated at 37° C. for 1 h. The plates were washed three times with PBST, followed by addition of 100 μl anti-His-6 mouse monoclonal antibody (1:2000 dilution) per well and 1 h incubation at 37° C. The plates were washed three times with PBST, followed by addition of 100 μl goat anti-mouse-HRP (1:2500 dilution) per well and 1 h incubation at 37° C. The plates were washed six times with PBST, followed by addition of 100 μl OPD to develop under the protection from light. The reactions were terminated by adding 50 μl 2M H₂SO₄ to each well, and data were collected by microplate reader at 490 nm.
(§2) One positive control and three negative controls were performed in parallel. The positive control used rabbit anti-ER multi-clonal antibody serum in replacement of the ScFv re-natured sample and goat-anti-rabbit-HRP in replacement of goat-anti-mouse HRP.

[2] = target: T1, biotinylated ERα36 (chemically …); experiment: ELISA on biotinylated ERα36 (streptavidin plate), ScFv 0.28 µg/ml, well 1
Protocol: as §1, §2

[3] = target: T2, recombinant human ERα36 (hER-α36, SEQ …); experiment: Western blot on lysates of ERα36-expressing HEK293 cells, anti-His-HRP
Protocol: ScFv1˜ScFv7 obtained after purification and renaturation were characterized using Western Blot. HEK293 cells were artificially constructed to express recombinant ERα36. Human breast cancer cells SK-BR-3 and ERα36-expressing HEK293 cells were cultured, harvested, and lysed by lysis buffer to obtain the cell lysates respectively. 20 μg/lane of the lysates were then loaded for SDS-PAGE. After electrophoresis, the protein samples were electronically transferred to PVDF membrane labeled with ScFv1˜ScFv7 respectively. The membranes were blocked with non-fat milk and anti-His-HRP was added to show the resulting images (FIG. 16).

[4] = target: T1, biotinylated ERα36 (chemically …); experiment: phage ELISA, biotinylated ERα36 on neutravidin plate, well 2
Protocol: (§3) Neutravidin-coated plates (purchased from Pierce) were washed with washing buffer (PBS containing 0.1% Tween-20) and all wells of the plates were blocked by incubating in blocking buffer at 4° C. for 1-2 h. Then the blocked plates were taken away from the blocking buffer, washed six times with washing buffer and dried upside-down. Biotinylated ERα36 in PBS (100 μl) was added to each testing well of the plates, incubated for 1-2 h at room temperature and removed. The plates were washed once with washing buffer. Phage solution (100 μl) was added per well and incubated for 1-2 h at room temperature. The plates were washed six times with the washing buffer. HRP-conjugated rabbit anti-M13 antibody (purchased from GE Healthcare) was diluted by 1:5,000 in blocking buffer. The diluted HRP-conjugated rabbit anti-M13 antibody (100 μl) was added to each well and incubated for 1 h at room temperature followed by washing six times with washing buffer.
(§4) HRP substrate solution (100 μl) was added to each testing well and incubated for 30 min at room temperature. The signals were detected using a microplate reader at 490 nm. […] The positive controls were plates coated with M13 phage and detected with HRP-conjugated anti-M13 antibodies.

[5] = target: T1, biotinylated ERα36 (chemically …); experiment: phage ELISA, biotinylated ERα36 on neutravidin plate, well 3
Protocol: as §3, §4

[6] = target: T1, biotinylated ERα36 (chemically …); experiment: phage ELISA, biotinylated ERα36 on neutravidin plate, well 1
Protocol: as §3, §4

Binder | OD490 [1] [OD490] | OD490 [2] [OD490] | binding result [3] | ELISA Signal (OD490) [4] [OD490] | ELISA Signal (OD490) [5] [OD490] | ELISA Signal (OD490) [6] [OD490]
human anti-ERα36 ScFv2 (purified, re-natured) (scFv, also called S24; S24A2r2) scFv: QSALTQPASVSGSPGQSITISCTGTSSDVGGYNYVSWYQQHPGKAPKLMIYDVSKRPSGVSNRFSGSKSGNTASLTISGLQAEDEADYYCSSYTSSSTLVFGGGTKLTVLGSGGSTITSYNVYYTKLSSSGTQVQLLESGAEVKKPGASVKVSCKASGYTFTAYYMHWVRQAPGQGLEWMAMIDPSGSITSYAQKFQGRVTMSRDTSTSTLYMELSSLRSDDTAVYYCARDLKEGFSVPGAFDIWGQGTMVTVSSAS | 0.09 | 0.093 | binds |  |  | 
human anti-ERα36 ScFv3 (purified, re-natured) (scFv, also called S33; S33A2r1) scFv: QSVLTQPASVSGSPGQSITISCTGTSSDVGGYNYVSWYQQHPGKAPKLMIYDVSKRPSGVSNRFSGSKSGNTASLTISGLQAEDEADYYCSSYTSSSTLVFGGGTKLTVLGSGGSTITSYNVYYTKLSSSGTEVQLVQSGGGVAQPGRSLRLSCAASGITFNSYGMHWVRQAPGKGLEWVAVMPYDGSNEYYADSVKGRFTISRDNSKNTLYLQMNSLRAEDTAVYYCAKGSGMVQLWADAFDVWGQGTMVTVSSAS | 0.171 | 0.159 | binds |  |  | 
human anti-ERα36 ScFv6 (purified, re-natured) (scFv, also called S66; S66A1r1) scFv: EIVMTQSPGTLSLSPGERATLSCRASQSVDSNFLAWYQQRPGQAPRLLIYGVSSSATGIPDRFSGSGSGTDFTLSIDRLEPEDFAVYYCQQYGSSPTFGGGTKLEIKRSGGSTITSYNVYYTKLSSSGTQVQLQESGGGLVQPGRSLRLSCAASGFTFDDYAMHWVRQAPGKGLEWVSGISWNSGSIGYADSVKGRFTISRDNAKNSLYLQMNSLRAEDTAVYYCARSGDYGAFDIWGQGTMVTVSSAS |  |  | binds |  |  | 
human anti-ERα36 ScFv7 (purified, re-natured) (scFv, also called S72; S72A2r1) scFv: QSVLTQPPSVSAAPGQKVTISCSGSSSNIGNNYVSWYQQLPGTAPKLLIYDNNKRPSGIPDRFSGSKSGTSATLGITGLQTGDEADYYCGTWDSSLSAGVFGGGTKLTVLGSGGSTITSYNVYYTKLSSSGTEVQLVQSGGGLVQPGRSLRLSCAASGFTFDDYAMHWVRQAPGKGLEWVSGISWNSGSIGYADSVKGRFTISRDNAKNSLYLQMNSLRAEDTALYYCAKEGDSSGWSPDYWGQGTLVTVSSAS |  |  | binds |  |  | 
phage-displayed ScFv7 (phage clone 12) (scFv, The phage coat protein fusion partner is not described; also called phage single clone No. 12) scFv: QSVLTQPPSVSAAPGQKVTISCSGSSSNIGNNYVSWYQQLPGTAPKLLIYDNNKRPSGIPDRFSGSKSGTSATLGITGLQTGDEADYYCGTWDSSLSAGVFGGGTKLTVLGSGGSTITSYNVYYTKLSSSGTEVQLVQSGGGLVQPGRSLRLSCAASGFTFDDYAMHWVRQAPGKGLEWVSGISWNSGSIGYADSVKGRFTISRDNAKNSLYLQMNSLRAEDTALYYCAKEGDSSGWSPDYWGQGTLVTVSSAS |  |  |  | 0.388 | 0.383 | 0.381
